Data as given in article PMC7041945, “Misfolded proteins bind and activate death receptor 5 to trigger apoptosis during unresolved endoplasmic reticulum stress” (eLife, 2020).

Tested on: CHOP, BiP, and DR5 mRNA in HCT116 cells
Experiment: qPCR of UPR target transcripts (CHOP, BiP, DR5)
Format: cell-based, Homo sapiens
Details: for avg. fold induction relative to empty traffo, BiP / avg. fold induction relative to empty traffo, CHOP / avg. fold induction relative to empty traffo, DR5 total: norm to GAPDH; for 2^-(deltaCq) BiP / 2^-(deltaCq) CHOP / 2^-(deltaCq) DR5 total: vs GAPDH
Procedure: Cells were grown in 6-well plates and harvested with 0.5 ml of TRIzol reagent (Life Technologies) per manufacturer’s protocol to extract RNA. For cDNA synthesis, 500 ng of total RNA was reverse transcribed with 2 μl of the SuperScript VILO master mix (Life Technologies # 11755050) in a total reaction volume of 10 μl following the manufacturer’s protocol for reaction temperature and duration. The reverse transcription product was diluted to 200 μl with 10 mM Tris-HCl pH 8.2 and used at 1:100 dilution for subsequent RT-PCR reactions.
PCR samples were prepared as described by manufacturer’s protocols from iQ SYBR Green Supermix (BioRad #17088800).
For each experiment, qRT-PCR reactions were set up in triplicate and run using a CFX96 Real Time System (Bio-Rad). Quantitation cycles were determined with CFX Manager 3.0 software (Bio-Rad) and then normalized to GAPDH as an internal control.

[1] = HCT116, pRK CHOP 31 ng, Sheet1, replicate 1

B1: pRK CHOP (protein, UniProt P35638 1-169, looked up)
DNA damage-inducible …: MAAESLPFSFGTLSSWELEAWYEDLQEVLSSDENGGTYVSPPGNEEEESKIFTTLDPASLAWLTEEEPEPAEVTSTSQSPHSPDSSQSSLAQEEEEEDQGRTRKRKQSGHSPARAGKQRMKEKEQENERKVAQLAEENERLKQEIERLTREVEATRRALIDRMVNLHQA
modifications: expression plasmid
- avg. fold induction relative to empty traffo, BiP (HCT116, 31 ng): 0.2997 fold
- avg. fold induction relative to empty traffo, CHOP (HCT116, 31 ng): 18.7911 fold
- fold induction relative to empty traffo, BiP (HCT116, 31 ng, replicate 1): 0.28 fold
- fold induction relative to empty traffo, CHOP (HCT116, 31 ng, replicate 1): 16.3851 fold
- fold induction relative to empty traffo, DR5 total (HCT116, 31 ng, replicate 1): 0.9029 fold
- fold induction relative to empty traffo, BiP (HCT116, 31 ng, replicate 2): 0.3243 fold
- fold induction relative to empty traffo, CHOP (HCT116, 31 ng, replicate 2): 19.1521 fold
- fold induction relative to empty traffo, DR5 total (HCT116, 31 ng, replicate 2): 0.9212 fold
- fold induction relative to empty traffo, BiP (HCT116, 31 ng, replicate 3): 0.2949 fold
- fold induction relative to empty traffo, CHOP (HCT116, 31 ng, replicate 3): 20.8362 fold
- fold induction relative to empty traffo, DR5 total (HCT116, 31 ng, replicate 3): 2.023 fold
- 2^-(deltaCq) BiP (HCT116, 31 ng, replicate 1): 0.02437
- 2^-(deltaCq) CHOP (HCT116, 31 ng, replicate 1): 0.1729
- 2^-(deltaCq) DR5 total (HCT116, 31 ng, replicate 1): 0.01464
- 2^-(deltaCq) BiP (HCT116, 31 ng, replicate 2): 0.02822
- 2^-(deltaCq) CHOP (HCT116, 31 ng, replicate 2): 0.2021
- 2^-(deltaCq) DR5 total (HCT116, 31 ng, replicate 2): 0.01494
- 2^-(deltaCq) BiP (HCT116, 31 ng, replicate 3): 0.02567
- 2^-(deltaCq) CHOP (HCT116, 31 ng, replicate 3): 0.2199
- 2^-(deltaCq) DR5 total (HCT116, 31 ng, replicate 3): 0.0328
- avg. fold induction relative to empty traffo, BiP (HCT116, 62 ng): 0.334 fold
- avg. fold induction relative to empty traffo, CHOP (HCT116, 62 ng): 50.7204 fold
- avg. fold induction relative to empty traffo, DR5 total (HCT116, 62 ng): 0.954 fold
- fold induction relative to empty traffo, BiP (HCT116, 62 ng, replicate 1): 0.3561 fold
- fold induction relative to empty traffo, CHOP (HCT116, 62 ng, replicate 1): 46.9347 fold
- fold induction relative to empty traffo, DR5 total (HCT116, 62 ng, replicate 1): 0.9555 fold
- fold induction relative to empty traffo, BiP (HCT116, 62 ng, replicate 2): 0.3335 fold
- fold induction relative to empty traffo, CHOP (HCT116, 62 ng, replicate 2): 49.2833 fold
- fold induction relative to empty traffo, DR5 total (HCT116, 62 ng, replicate 2): 1.032 fold
- fold induction relative to empty traffo, BiP (HCT116, 62 ng, replicate 3): 0.3124 fold
- fold induction relative to empty traffo, CHOP (HCT116, 62 ng, replicate 3): 55.9433 fold
- fold induction relative to empty traffo, DR5 total (HCT116, 62 ng, replicate 3): 0.8745 fold
- 2^-(deltaCq) BiP (HCT116, 62 ng, replicate 1): 0.031
- 2^-(deltaCq) CHOP (HCT116, 62 ng, replicate 1): 0.4954
- 2^-(deltaCq) DR5 total (HCT116, 62 ng, replicate 1): 0.01549
- 2^-(deltaCq) BiP (HCT116, 62 ng, replicate 2): 0.02903
- 2^-(deltaCq) CHOP (HCT116, 62 ng, replicate 2): 0.5202
- 2^-(deltaCq) DR5 total (HCT116, 62 ng, replicate 2): 0.01673
- 2^-(deltaCq) BiP (HCT116, 62 ng, replicate 3): 0.02719
- 2^-(deltaCq) CHOP (HCT116, 62 ng, replicate 3): 0.5905
- 2^-(deltaCq) DR5 total (HCT116, 62 ng, replicate 3): 0.01418
- avg. fold induction relative to empty traffo, BiP (HCT116, 125 ng): 0.5304 fold
- avg. fold induction relative to empty traffo, CHOP (HCT116, 125 ng): 220.701 fold
- avg. fold induction relative to empty traffo, DR5 total (HCT116, 125 ng): 1.17 fold
- fold induction relative to empty traffo, BiP (HCT116, 125 ng, replicate 1): 0.6342 fold
- fold induction relative to empty traffo, CHOP (HCT116, 125 ng, replicate 1): 230.561 fold
- fold induction relative to empty traffo, DR5 total (HCT116, 125 ng, replicate 1): 1.242 fold
- fold induction relative to empty traffo, BiP (HCT116, 125 ng, replicate 2): 0.5274 fold
- fold induction relative to empty traffo, CHOP (HCT116, 125 ng, replicate 2): 173.762 fold
- fold induction relative to empty traffo, DR5 total (HCT116, 125 ng, replicate 2): 1.206 fold
- fold induction relative to empty traffo, BiP (HCT116, 125 ng, replicate 3): 0.4295 fold
- fold induction relative to empty traffo, CHOP (HCT116, 125 ng, replicate 3): 257.78 fold
- fold induction relative to empty traffo, DR5 total (HCT116, 125 ng, replicate 3): 1.064 fold
- 2^-(deltaCq) BiP (HCT116, 125 ng, replicate 1): 0.0552
- 2^-(deltaCq) CHOP (HCT116, 125 ng, replicate 1): 2.434
- 2^-(deltaCq) DR5 total (HCT116, 125 ng, replicate 1): 0.02013
- 2^-(deltaCq) BiP (HCT116, 125 ng, replicate 2): 0.04591
- 2^-(deltaCq) CHOP (HCT116, 125 ng, replicate 2): 1.834
- 2^-(deltaCq) DR5 total (HCT116, 125 ng, replicate 2): 0.01955
- 2^-(deltaCq) BiP (HCT116, 125 ng, replicate 3): 0.03739
- 2^-(deltaCq) CHOP (HCT116, 125 ng, replicate 3): 2.7208
- 2^-(deltaCq) DR5 total (HCT116, 125 ng, replicate 3): 0.01725
- avg. fold induction relative to empty traffo, BiP (HCT116, 250 ng): 0.5014 fold
- avg. fold induction relative to empty traffo, CHOP (HCT116, 250 ng): 408.627 fold
- avg. fold induction relative to empty traffo, DR5 total (HCT116, 250 ng): 0.9069 fold
- fold induction relative to empty traffo, BiP (HCT116, 250 ng, replicate 1): 0.6408 fold
- fold induction relative to empty traffo, CHOP (HCT116, 250 ng, replicate 1): 391.947 fold
- fold induction relative to empty traffo, DR5 total (HCT116, 250 ng, replicate 1): 0.8794 fold
- fold induction relative to empty traffo, BiP (HCT116, 250 ng, replicate 2): 0.4446 fold
- fold induction relative to empty traffo, CHOP (HCT116, 250 ng, replicate 2): 418.188 fold
- fold induction relative to empty traffo, DR5 total (HCT116, 250 ng, replicate 2): 0.9861 fold
- fold induction relative to empty traffo, BiP (HCT116, 250 ng, replicate 3): 0.4188 fold
- fold induction relative to empty traffo, CHOP (HCT116, 250 ng, replicate 3): 415.746 fold
- fold induction relative to empty traffo, DR5 total (HCT116, 250 ng, replicate 3): 0.8551 fold
- 2^-(deltaCq) BiP (HCT116, 250 ng, replicate 1): 0.05578
- 2^-(deltaCq) CHOP (HCT116, 250 ng, replicate 1): 4.1369
- 2^-(deltaCq) DR5 total (HCT116, 250 ng, replicate 1): 0.01426
- 2^-(deltaCq) BiP (HCT116, 250 ng, replicate 2): 0.0387
- 2^-(deltaCq) CHOP (HCT116, 250 ng, replicate 2): 4.414
- 2^-(deltaCq) DR5 total (HCT116, 250 ng, replicate 2): 0.01599
- 2^-(deltaCq) BiP (HCT116, 250 ng, replicate 3): 0.03645
- 2^-(deltaCq) CHOP (HCT116, 250 ng, replicate 3): 4.3881
- 2^-(deltaCq) DR5 total (HCT116, 250 ng, replicate 3): 0.01387
- avg. fold induction relative to empty traffo, BiP (HCT116, 500 ng): 0.5375 fold
- avg. fold induction relative to empty traffo, CHOP (HCT116, 500 ng): 1484.73 fold
- avg. fold induction relative to empty traffo, DR5 total (HCT116, 500 ng): 1.792 fold
- fold induction relative to empty traffo, BiP (HCT116, 500 ng, replicate 1): 0.5213 fold
- fold induction relative to empty traffo, CHOP (HCT116, 500 ng, replicate 1): 1691.32 fold
- fold induction relative to empty traffo, DR5 total (HCT116, 500 ng, replicate 1): 1.92 fold
- fold induction relative to empty traffo, BiP (HCT116, 500 ng, replicate 2): 0.6638 fold
- fold induction relative to empty traffo, CHOP (HCT116, 500 ng, replicate 2): 1384.67 fold
- fold induction relative to empty traffo, DR5 total (HCT116, 500 ng, replicate 2): 1.724 fold
- fold induction relative to empty traffo, BiP (HCT116, 500 ng, replicate 3): 0.4274 fold
- fold induction relative to empty traffo, CHOP (HCT116, 500 ng, replicate 3): 1378.19 fold
- fold induction relative to empty traffo, DR5 total (HCT116, 500 ng, replicate 3): 1.731 fold
- 2^-(deltaCq) BiP (HCT116, 500 ng, replicate 1): 0.04537
- 2^-(deltaCq) CHOP (HCT116, 500 ng, replicate 1): 17.8515
- 2^-(deltaCq) DR5 total (HCT116, 500 ng, replicate 1): 0.03114
- 2^-(deltaCq) BiP (HCT116, 500 ng, replicate 2): 0.05778
- 2^-(deltaCq) CHOP (HCT116, 500 ng, replicate 2): 14.6148
- 2^-(deltaCq) DR5 total (HCT116, 500 ng, replicate 2): 0.02796
- 2^-(deltaCq) BiP (HCT116, 500 ng, replicate 3): 0.0372
- 2^-(deltaCq) CHOP (HCT116, 500 ng, replicate 3): 14.5464
- 2^-(deltaCq) DR5 total (HCT116, 500 ng, replicate 3): 0.02807
- CHOP (qPCR CHOP, Sheet1) [1]: 16.3851
- DR5 (qPCR CHOP, Sheet1) [1]: 0.9029
- GADD34 (qPCR CHOP, Sheet1) [1]: 0.958
